Assay results from ChEMBL document CHEMBL1130856, “A new series of cyclic amino acids as inhibitors of S-adenosyl L-methionine synthetase” (Bioorg Med Chem Lett, 1998).

System: CSCC[C@H](N)C(=O)O
Description: Compound was evaluated for its inhibitory activity against recombinant S-adenosyl L-Methionine synthetase (alpha-isoform) in rat liver

Sequence of S-adenosylmethionine synthase isoform type-1 (Rattus norvegicus), P13444 (P13444 whole entry, canonical isoform): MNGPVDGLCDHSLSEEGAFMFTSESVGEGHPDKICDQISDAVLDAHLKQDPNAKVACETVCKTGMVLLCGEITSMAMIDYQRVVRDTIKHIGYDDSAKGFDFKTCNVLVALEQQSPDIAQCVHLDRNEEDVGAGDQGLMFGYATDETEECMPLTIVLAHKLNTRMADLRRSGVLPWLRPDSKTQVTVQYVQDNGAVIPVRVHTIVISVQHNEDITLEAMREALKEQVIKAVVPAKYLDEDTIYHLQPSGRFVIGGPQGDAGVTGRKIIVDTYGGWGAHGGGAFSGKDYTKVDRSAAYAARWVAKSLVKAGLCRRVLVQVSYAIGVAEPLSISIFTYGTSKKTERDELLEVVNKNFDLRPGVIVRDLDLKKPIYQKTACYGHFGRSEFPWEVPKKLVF

Substance: S-adenosylmethionine synthase isoform type-1 (Rattus norvegicus), P13444
- Km: 70 µM
